According to patent US20230265151A1, “GIP/GLP1 CO-AGONIST COMPOUNDS” (priority 2020, published 2023):
*1 amine or outer side, *2 acyl side, *3 side chain or, on linkers, in order; H or OH if unused. Where no end group is shown, it is not given here. Side-chain parts run from the residue outwards. [ ]: non-standard residue; d: D form. The star is where a group is joined. Butanoyl(4-(4-tBuPh)) = CC(C)(C)c1ccc(CCCC(=O)*)cc1; αMePhe(2-F) = C[C@](N)(Cc1ccccc1F)C(=O)O; γGlu = O=C(O)[C@H](CCC(=O)[*:2])N[*:1]; C14 diacid = O=C(O)CCCCCCCCCCCCC(=O)*; αMeY = C[C@](N)(Cc1ccc(O)cc1)C(=O)O; αMeF = C[C@](N)(Cc1ccccc1)C(=O)O; αMeL = CC(C)C[C@](C)(N)C(=O)O; Lauroyl = CCCCCCCCCCCC(=O)*; Orn = NCCC[C@H](N)C(=O)O; AEEA = NCCOCCOCC(=O)O; Aib = CC(C)(N)C(=O)O

What was measured:
Test in all cases: cell-based or functional assay
[1] = biological target: human glucagon receptor (human, UniProt P47871 26-477)
[2] = biological target: T1, human glucose-dependent insulinotropic polypeptide (GIP) receptor (human, UniProt P48546 22-466)
T1 sequence (looked up): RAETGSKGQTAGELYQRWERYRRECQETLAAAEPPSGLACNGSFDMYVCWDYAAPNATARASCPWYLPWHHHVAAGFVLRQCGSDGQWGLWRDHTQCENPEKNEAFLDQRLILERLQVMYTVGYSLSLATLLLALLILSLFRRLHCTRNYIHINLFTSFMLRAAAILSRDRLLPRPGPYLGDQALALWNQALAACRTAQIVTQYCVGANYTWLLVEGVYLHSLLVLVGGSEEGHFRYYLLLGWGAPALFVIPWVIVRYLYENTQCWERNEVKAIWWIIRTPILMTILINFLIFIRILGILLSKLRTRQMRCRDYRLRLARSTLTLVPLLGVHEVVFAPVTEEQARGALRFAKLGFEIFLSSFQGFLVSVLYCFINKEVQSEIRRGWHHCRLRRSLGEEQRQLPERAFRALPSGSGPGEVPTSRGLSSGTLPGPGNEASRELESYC

[3] = biological target: human glucagon-like peptide-1 (GLP-1) receptor (human, UniProt P43220 24-463)

B1: Y-Aib-EGT-αMeF(2F)-TSD-4Pal-SI-αMeL-LD-Orn-K((2-[2-(2-Amino-ethoxy)-ethoxy]-acetyl)2-(γ-Glu)-CO-(CH2)14-CH3)AQ-Aib-EFI-(D-Glu)-αMeY-LIEGGK((2-[2-(2-Amino-ethoxy … (peptide)
peptide: YXEGTXTSDXSIXLDXKAQXEFIXXLIEGGKSSGAPPPS
modifications: Aib2, αMeF(2F)6, 4Pal10, αMeL13, Orn16, Aib20, D-Glu24, αMeY25; acylated K17, K31 (groups as in name); C-terminal amide
cAMP EC50 (1.0% HSA) [1]: > 9950 nM

B2: Y-Aib-EGT-αMeF(2F)-TSD-4Pal-SI-αMeL-LD-Orn-K((2-[2-(2-Amino-ethoxy)-ethoxy]-acetyl)2-(γ-Glu)-(10-(4-carboxyphenoxy)decanoyl))AQ-Aib-EFI-(D-Glu)-αMeY-LIEGGK((2-[ … (peptide)
peptide: YXEGTXTSDXSIXLDXKAQXEFIXXLIEGGKSSGAPPPS
modifications: Aib2, αMeF(2F)6, 4Pal10, αMeL13, Orn16, Aib20, D-Glu24, αMeY25; acylated K17, K31 (groups as in name); C-terminal amide
cAMP EC50 (1.0% HSA) [1]: > 9950 nM

B3: Y-Aib-EGT-αMeF(2F)-TSD-4Pal-SI-αMeL-LD-Orn-K((2-[2-(2-Amino-ethoxy)-ethoxy]-acetyl)2-(γ-Glu)-(4-(4-tert-butylphenyl)butanoyl))AQ-Aib-EFI-(D-Glu)-αMeY-LIEGGK((2- … (peptide)
peptide: YXEGTXTSDXSIXLDXKAQXEFIXXLIEGGKSSGAPPPS
modifications: Aib2, αMeF(2F)6, 4Pal10, αMeL13, Orn16, Aib20, D-Glu24, αMeY25; acylated K17, K31 (groups as in name); C-terminal amide
cAMP EC50 (1.0% HSA) [1]: > 9950 nM

B4: Y-Aib-EGT-αMeF(2F)-TSD-4Pal-SI-αMeL-LD-Orn-K((2-[2-(2-Amino-ethoxy)-ethoxy]-acetyl)2-(γ-Glu)-CO-(CH2)10-CO2H)AQ-Aib-EFI-(D-Glu)-αMeY-LIEGGK((2-[2-(2-Amino-ethox … (peptide)
peptide: YXEGTXTSDXSIXLDXKAQXEFIXXLIEGGKSSGAPPPS
modifications: Aib2, αMeF(2F)6, 4Pal10, αMeL13, Orn16, Aib20, D-Glu24, αMeY25; acylated K17, K31 (groups as in name); C-terminal amide
cAMP EC50 (1.0% HSA) [1]: > 9950 nM

B5: Y-Aib-EGT-αMeF(2F)-TSD-4Pal-SI-αMeL-LD-Orn-K((2-[2-(2-Amino-ethoxy)-ethoxy]-acetyl)2-(γ-Glu)-CO-(CH2)12-CH3)AQ-Aib-EFI-(D-Glu)-αMeY-LIEGGK((2-[2-(2-Amino-ethoxy … (peptide)
peptide: YXEGTXTSDXSIXLDXKAQXEFIXXLIEGGKSSGAPPPS
modifications: Aib2, αMeF(2F)6, 4Pal10, αMeL13, Orn16, Aib20, D-Glu24, αMeY25; acylated K17, K31 (groups as in name); C-terminal amide
cAMP EC50 (1.0% HSA) [1]: > 9950 nM

B6: Example 175 (peptide)
peptide: Y[Aib]EGT[αMePhe(2-F)]TSDV[Aib]I[αMeL]LD[Orn]K([AEEA-AEEA-γGlu-Lauroyl])AQ[Aib]EFI[dE][αMeY]LIEGGK([AEEA-AEEA-γGlu-Lauroyl])SSGAPPPS-NH2
modifications: N-terminus assumed
SMILES: CCCCCCCCCCCC(=O)N[C@@H](CCC(=O)NCCOCCOCC(=O)NCCOCCOCC(=O)NCCCC[C@H](NC(=O)CNC(=O)CNC(=O)[C@H](CCC(=O)O)NC(=O)[C@@H](NC(=O)[C@H](CC(C)C)NC(=O)[C@](C)(Cc1ccc(O)cc1)NC(=O)[C@@H](CCC(=O)O)NC(=O)[C@@H](NC(=O)[C@H](Cc1ccccc1)NC(=O)[C@H](CCC(=O)O)NC(=O)C(C)(C)NC(=O)[C@H](CCC(N)=O)NC(=O)[C@H](C)NC(=O)[C@H](CCCCNC(=O)COCCOCCNC(=O)COCCOCCNC(=O)CC[C@H](NC(=O)CCCCCCCCCCC)C(=O)O)NC(=O)[C@H](CCCN)NC(=O)[C@H](CC(=O)O)NC(=O)[C@H](CC(C)C)NC(=O)[C@](C)(CC(C)C)NC(=O)[C@@H](NC(=O)C(C)(C)NC(=O)[C@@H](NC(=O)[C@H](CC(=O)O)NC(=O)[C@H](CO)NC(=O)[C@@H](NC(=O)[C@](C)(Cc1ccccc1F)NC(=O)[C@@H](NC(=O)CNC(=O)[C@H](CCC(=O)O)NC(=O)C(C)(C)NC(=O)[C@@H](N)Cc1ccc(O)cc1)[C@@H](C)O)[C@@H](C)O)C(C)C)[C@@H](C)CC)[C@@H](C)CC)[C@@H](C)CC)C(=O)N[C@@H](CO)C(=O)N[C@@H](CO)C(=O)NCC(=O)N[C@@H](C)C(=O)N1CCC[C@H]1C(=O)N1CCC[C@H]1C(=O)N1CCC[C@H]1C(=O)N[C@@H](CO)C(N)=O)C(=O)O
cAMP EC50 [2]: 0.0337 nM | cAMP Emax [2]: 100% | cAMP EC50 [3]: 0.227 nM | cAMP Emax [3]: 91.1%

B7: Example 178 (peptide)
peptide: Y[Aib]EGT[αMeF]TSDV[Aib]I[αMeL]LD[Orn]K([AEEA-AEEA-γGlu-Butanoyl(4-(4-tBuPh))])AQ[Aib]EFI[dE][αMeY]LIEGGK([AEEA-AEEA-γGlu-Butanoyl(4-(4-tBuPh))])SSGAPPPS-NH2
modifications: N-terminus assumed
SMILES: CC[C@H](C)[C@H](NC(=O)[C@H](CC(C)C)NC(=O)[C@](C)(Cc1ccc(O)cc1)NC(=O)[C@@H](CCC(=O)O)NC(=O)[C@@H](NC(=O)[C@H](Cc1ccccc1)NC(=O)[C@H](CCC(=O)O)NC(=O)C(C)(C)NC(=O)[C@H](CCC(N)=O)NC(=O)[C@H](C)NC(=O)[C@H](CCCCNC(=O)COCCOCCNC(=O)COCCOCCNC(=O)CC[C@H](NC(=O)CCCc1ccc(C(C)(C)C)cc1)C(=O)O)NC(=O)[C@H](CCCN)NC(=O)[C@H](CC(=O)O)NC(=O)[C@H](CC(C)C)NC(=O)[C@](C)(CC(C)C)NC(=O)[C@@H](NC(=O)C(C)(C)NC(=O)[C@@H](NC(=O)[C@H](CC(=O)O)NC(=O)[C@H](CO)NC(=O)[C@@H](NC(=O)[C@](C)(Cc1ccccc1)NC(=O)[C@@H](NC(=O)CNC(=O)[C@H](CCC(=O)O)NC(=O)C(C)(C)NC(=O)[C@@H](N)Cc1ccc(O)cc1)[C@@H](C)O)[C@@H](C)O)C(C)C)[C@@H](C)CC)[C@@H](C)CC)C(=O)N[C@@H](CCC(=O)O)C(=O)NCC(=O)NCC(=O)N[C@@H](CCCCNC(=O)COCCOCCNC(=O)COCCOCCNC(=O)CC[C@H](NC(=O)CCCc1ccc(C(C)(C)C)cc1)C(=O)O)C(=O)N[C@@H](CO)C(=O)N[C@@H](CO)C(=O)NCC(=O)N[C@@H](C)C(=O)N1CCC[C@H]1C(=O)N1CCC[C@H]1C(=O)N1CCC[C@H]1C(=O)N[C@@H](CO)C(N)=O
cAMP EC50 [2]: 0.11 nM | cAMP Emax [2]: 105% | cAMP EC50 [3]: 0.22 nM

B8: Example 180 (peptide)
peptide: Y[Aib]EGT[αMeF]TSDV[Aib]I[αMeL]LD[Orn]K([AEEA-AEEA-γGlu-C14 diacid])AQ[Aib]EFI[dE][αMeY]LIEGGK([AEEA-AEEA-γGlu-C14 diacid])SSGAPPPS-NH2
modifications: N-terminus assumed
SMILES: CC[C@H](C)[C@H](NC(=O)[C@H](CC(C)C)NC(=O)[C@](C)(Cc1ccc(O)cc1)NC(=O)[C@@H](CCC(=O)O)NC(=O)[C@@H](NC(=O)[C@H](Cc1ccccc1)NC(=O)[C@H](CCC(=O)O)NC(=O)C(C)(C)NC(=O)[C@H](CCC(N)=O)NC(=O)[C@H](C)NC(=O)[C@H](CCCCNC(=O)COCCOCCNC(=O)COCCOCCNC(=O)CC[C@H](NC(=O)CCCCCCCCCCCCC(=O)O)C(=O)O)NC(=O)[C@H](CCCN)NC(=O)[C@H](CC(=O)O)NC(=O)[C@H](CC(C)C)NC(=O)[C@](C)(CC(C)C)NC(=O)[C@@H](NC(=O)C(C)(C)NC(=O)[C@@H](NC(=O)[C@H](CC(=O)O)NC(=O)[C@H](CO)NC(=O)[C@@H](NC(=O)[C@](C)(Cc1ccccc1)NC(=O)[C@@H](NC(=O)CNC(=O)[C@H](CCC(=O)O)NC(=O)C(C)(C)NC(=O)[C@@H](N)Cc1ccc(O)cc1)[C@@H](C)O)[C@@H](C)O)C(C)C)[C@@H](C)CC)[C@@H](C)CC)C(=O)N[C@@H](CCC(=O)O)C(=O)NCC(=O)NCC(=O)N[C@@H](CCCCNC(=O)COCCOCCNC(=O)COCCOCCNC(=O)CC[C@H](NC(=O)CCCCCCCCCCCCC(=O)O)C(=O)O)C(=O)N[C@@H](CO)C(=O)N[C@@H](CO)C(=O)NCC(=O)N[C@@H](C)C(=O)N1CCC[C@H]1C(=O)N1CCC[C@H]1C(=O)N1CCC[C@H]1C(=O)N[C@@H](CO)C(N)=O
cAMP EC50 [2]: 0.224 nM | cAMP Emax [2]: 86.8% | cAMP EC50 [3]: 0.26 nM

B9: Example 176 (peptide)
peptide: Y[Aib]EGT[αMeF]TSDV[Aib]I[αMeL]LD[Orn]K([AEEA-AEEA-γGlu-Lauroyl])AQ[Aib]EFI[dE][αMeY]LIEGGK([AEEA-AEEA-γGlu-Lauroyl])SSGAPPPS-NH2
modifications: N-terminus assumed
SMILES: CCCCCCCCCCCC(=O)N[C@@H](CCC(=O)NCCOCCOCC(=O)NCCOCCOCC(=O)NCCCC[C@H](NC(=O)CNC(=O)CNC(=O)[C@H](CCC(=O)O)NC(=O)[C@@H](NC(=O)[C@H](CC(C)C)NC(=O)[C@](C)(Cc1ccc(O)cc1)NC(=O)[C@@H](CCC(=O)O)NC(=O)[C@@H](NC(=O)[C@H](Cc1ccccc1)NC(=O)[C@H](CCC(=O)O)NC(=O)C(C)(C)NC(=O)[C@H](CCC(N)=O)NC(=O)[C@H](C)NC(=O)[C@H](CCCCNC(=O)COCCOCCNC(=O)COCCOCCNC(=O)CC[C@H](NC(=O)CCCCCCCCCCC)C(=O)O)NC(=O)[C@H](CCCN)NC(=O)[C@H](CC(=O)O)NC(=O)[C@H](CC(C)C)NC(=O)[C@](C)(CC(C)C)NC(=O)[C@@H](NC(=O)C(C)(C)NC(=O)[C@@H](NC(=O)[C@H](CC(=O)O)NC(=O)[C@H](CO)NC(=O)[C@@H](NC(=O)[C@](C)(Cc1ccccc1)NC(=O)[C@@H](NC(=O)CNC(=O)[C@H](CCC(=O)O)NC(=O)C(C)(C)NC(=O)[C@@H](N)Cc1ccc(O)cc1)[C@@H](C)O)[C@@H](C)O)C(C)C)[C@@H](C)CC)[C@@H](C)CC)[C@@H](C)CC)C(=O)N[C@@H](CO)C(=O)N[C@@H](CO)C(=O)NCC(=O)N[C@@H](C)C(=O)N1CCC[C@H]1C(=O)N1CCC[C@H]1C(=O)N1CCC[C@H]1C(=O)N[C@@H](CO)C(N)=O)C(=O)O
cAMP EC50 [2]: 0.0485 nM | cAMP Emax [2]: 89.3% | cAMP EC50 [3]: 0.298 nM
